Usually Kd stands for the concentration at which binding is half-saturated. A higher Kd goes with weaker binding.

Residue numbers refer to the chain shown, from its start.

This note sets out measurements from publication PMC10042821, “Cryo-EM structure of human eIF5A-DHS complex reveals the molecular basis of hypusination-associated neurodegenerative disorders” (Nature Communications, 2023).

What all share (test): MST; Monolith NT.115; 8.32 nM His-tagged DHS labelled with RED-tris-NTA, eIF5A titrated 0.00175-57.5 uM; 50 mM Tris, 200 mM NaCl, 5 mM beta-ME pH 8; free buffer
Common to all, as to conditions: both partners purified

Experiment [1] addresses T1, deoxyhypusine synthase E137A, His-tagged (human, UniProt P49366 1-369, E137A).
T1 construct: deoxyhypusine synthase (DHS), Homo sapiens, UniProt P49366, residues 1-369; source: E. coli, purified; His-tagged protein labelled with RED-tris-NTA for MST; not shown: His6, N-terminal, kept
T1 sequence (looked up): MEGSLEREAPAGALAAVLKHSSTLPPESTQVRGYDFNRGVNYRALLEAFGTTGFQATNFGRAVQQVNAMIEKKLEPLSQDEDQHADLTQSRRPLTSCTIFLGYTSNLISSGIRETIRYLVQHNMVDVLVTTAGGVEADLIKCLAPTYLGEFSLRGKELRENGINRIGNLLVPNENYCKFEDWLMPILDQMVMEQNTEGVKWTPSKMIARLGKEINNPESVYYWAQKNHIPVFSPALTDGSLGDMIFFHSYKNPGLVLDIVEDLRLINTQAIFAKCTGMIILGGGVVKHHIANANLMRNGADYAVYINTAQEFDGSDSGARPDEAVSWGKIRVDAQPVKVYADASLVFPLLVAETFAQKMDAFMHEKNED

The target of experiment [2] is T2, deoxyhypusine synthase delY305_I306, patient-derived variant, His-tagged (human, UniProt P49366 1-369, delY305_I306).
T2 construct: deoxyhypusine synthase (DHS), Homo sapiens, UniProt P49366, residues 1-369, pathological variant lacking Y305 and I306; Primarily dimeric by mass photometry; also called DHS^delY305_I306; DHS^del305Y_306I; source: E. coli, purified from the soluble fraction; His-tagged protein labelled with RED-tris-NTA for MST; not shown: His6, N-terminal, kept
T2 sequence (looked up): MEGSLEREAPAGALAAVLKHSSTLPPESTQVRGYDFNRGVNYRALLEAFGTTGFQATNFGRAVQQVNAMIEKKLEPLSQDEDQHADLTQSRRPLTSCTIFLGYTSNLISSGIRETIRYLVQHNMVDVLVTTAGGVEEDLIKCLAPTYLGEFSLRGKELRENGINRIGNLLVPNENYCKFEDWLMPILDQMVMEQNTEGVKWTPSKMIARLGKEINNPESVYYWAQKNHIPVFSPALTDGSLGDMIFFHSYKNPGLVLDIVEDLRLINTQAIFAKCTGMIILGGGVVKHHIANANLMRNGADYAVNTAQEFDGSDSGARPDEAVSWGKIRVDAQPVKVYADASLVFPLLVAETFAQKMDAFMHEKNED

The target of experiment [3] is T3, deoxyhypusine synthase H288A, His-tagged (human, UniProt P49366 1-369, H288A).
T3 construct: deoxyhypusine synthase (DHS), Homo sapiens, UniProt P49366, residues 1-369; source: E. coli, purified; His-tagged protein labelled with RED-tris-NTA for MST; not shown: His6, N-terminal, kept
T3 sequence (looked up): T1 sequence (looked up) with A137E, H288A

Experiment [4] has as its target T4, deoxyhypusine synthase N173S, patient-derived variant, His-tagged (human, UniProt P49366 1-369, N173S).
T4 construct: deoxyhypusine synthase (DHS), Homo sapiens, UniProt P49366, residues 1-369, pathological variant N173S; also called DHS^N173S; source: E. coli, purified from the soluble fraction; His-tagged protein labelled with RED-tris-NTA for MST; not shown: His6, N-terminal, kept
T4 sequence (looked up): T1 sequence (looked up) with A137E, N173S

Experiment [5] concerns the target T5, deoxyhypusine synthase D243A, His-tagged (human, UniProt P49366 1-369, D243A).
T5 construct: deoxyhypusine synthase (DHS), Homo sapiens, UniProt P49366, residues 1-369; source: E. coli, purified; His-tagged protein labelled with RED-tris-NTA for MST; not shown: His6, N-terminal, kept
T5 sequence (looked up): T1 sequence (looked up) with A137E, D243A

B1: eukaryotic translation factor 5A-1 (eIF5A-1), residues 15-151 (domain or fragment)
chain: not shown
notes: eIF5A1 (eukaryotic translation factor 5A-1), human, residues 15-151, from pET28-MHL (Addgene); The general purification removes the His tag with TEV; A His-tagged eIF5A1 was used only in the hypusination assay; source: E. coli, purified (HisTrap, TEV cleavage, reverse HisTrap, SEC); not shown: His tag, N-terminal, cleaved
As to B1, the Kd in experiment [1] was greater than 1000 nM; in experiment [2], 80 ± 23.4 nM; in experiment [3], 49.7 ± 28.7 nM; in experiment [4], 115 ± 22.3 nM; in experiment [5], 511 ± 182 nM.
